The target in the experiment is T1, HA-tagged HNF4 (hepatocyte nuclear factor 4) (UniProt P41235 1-474).
T1 sequence (looked up): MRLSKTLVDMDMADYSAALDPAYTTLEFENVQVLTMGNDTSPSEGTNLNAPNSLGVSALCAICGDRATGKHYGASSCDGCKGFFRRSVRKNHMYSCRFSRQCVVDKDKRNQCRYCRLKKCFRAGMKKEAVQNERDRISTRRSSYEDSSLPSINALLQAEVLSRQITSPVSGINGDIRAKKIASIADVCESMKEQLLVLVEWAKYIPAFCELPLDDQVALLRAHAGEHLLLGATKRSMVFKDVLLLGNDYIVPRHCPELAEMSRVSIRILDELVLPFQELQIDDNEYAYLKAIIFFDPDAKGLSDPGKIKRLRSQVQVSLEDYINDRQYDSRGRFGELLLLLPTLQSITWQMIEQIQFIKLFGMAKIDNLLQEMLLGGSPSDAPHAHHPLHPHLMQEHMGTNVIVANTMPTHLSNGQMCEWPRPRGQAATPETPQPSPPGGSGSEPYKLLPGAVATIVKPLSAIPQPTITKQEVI
Kind of experiment: cell-based or functional assay.

B1: HA-tagged DDX3 (natural protein, UniProt O00571 1-662, looked up)
chain: MSHVAVENALGLDQQFAGLDLNSSDNQSGGSTASKGRYIPPHLRNREATKGFYDKDSSGWSSSKDKDAYSSFGSRSDSRGKSSFFSDRGSGSRGRFDDRGRSDYDGIGSRGDRSGFGKFERGGNSRWCDKSDEDDWSKPLPPSERLEQELFSGGNTGINFEKYDDIPVEATGNNCPPHIESFSDVEMGEIIMGNIELTRYTRPTPVQKHAIPIIKEKRDLMACAQTGSGKTAAFLLPILSQIYSDGPGEALRAMKENGRYGRRKQYPISLVLAPTRELAVQIYEEARKFSYRSRVRPCVVYGGADIGQQIRDLERGCHLLVATPGRLVDMMERGKIGLDFCKYLVLDEADRMLDMGFEPQIRRIVEQDTMPPKGVRHTMMFSATFPKEIQMLARDFLDEYIFLAVGRVGSTSENITQKVVWVEESDKRSFLLDLLNATGKDSLTLVFVETKKGADSLEDFLYHEGYACTSIHGDRSQRDREEALHQFRSGKSPILVATAVAARGLDISNVKHVINFDLPSDIEEYVHRIGRTGRVGNLGLATSFFNERNINITKDLLDLLVEAKQEVPSWLENMAYEHHYKGSSRGRSKSSRFSGGFGARDYRQSSGASSSSFSSSRASSSRSGGGGHGSSRGFGGGGYGGFYNSDGYGGNYNSQGVDWWGN
In the case of B1, the “luciferase activity of pGL2/MTP-Luc(-611/+87) in HuH7 cells, HA-HNF4 with increasing HA-DDX3 against HA-HNF4 alone (2.4- to 8.9-fold, DDX3 dose-dependent)” value came out at 8.9 fold.

Values taken from paper PMC5269733, “RNA helicase DDX3 maintains lipid homeostasis through upregulation of the microsomal triglyceride transfer protein by interacting with HNF4 and SHP” (Scientific Reports, 2017).
